In the supplement of paper PMC12764529:
± gives the half width of the 95% confidence interval.

Experiments:
[1] = folding stability dG unfold from chymotrypsin proteolysis; higher = more stable
Procedure, shortened: (§1)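 Digests were run with trypsin and chymotrypsin at 11 concentrations in threefold dilutions, plus a no-protease condition, on designed mini-proteins in a PA-tagged cDNA display construct. The mini-proteins were under 80 residues, had no cysteine, and were kept only when AlphaFold2 dimer inter-PAE was above 15. After sequencing, Bayesian fitting of the counts gave K50, from which unfolding free energy was derived against a sequence-predicted unfolded-state K50 and a shared folded-state K50, per protease or combined.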

[2] = folding stability dG unfold (combined trypsin and chymotrypsin); higher = more stable
Procedure, shortened: as §1

[3] = folding stability dG unfold from trypsin proteolysis; higher = more stable
Procedure, shortened: as §1

Sequence	folding stability dG unfold [1] [kcal/mol]	folding stability dG unfold [2] [kcal/mol]	folding stability dG unfold [3] [kcal/mol]
SAGGSAGGSAGMPPPVVVEPKRTSVVPESGLVIIPVTVFNPANGKATLTTYLYDPATGKLVLSAGGSAGGSA [r18_228_JUSTAS]	2.17 ± 0.058	1.72 ± 0.12	0.734 ± 0.17
SAGGSAGGSISIDPAKVLEVKTRANGQLLITTEDEVYVVDPSTGTVTKITKEEAEKLPEDVPLLSAGGSAGG [r6_890_JUSTAS]	1.94 ± 0.037	1.96 ± 0.15	1.9 ± 0.042
SAGGMRLRIVVKSEEEARELAEALAKKLKEEFPGLKIEVKVVKVEYNEETDLIVVEVEIKVELEDEEPSAGG [r13_585_TrROS_Hall]	4.42 ± 0.19	4.42 ± 0.35	4.6 ± 0.33
SAGGSAGGSKEKVIEIKIKVKTKEEAKKKAEELAKELEKKGYKIKKVEIKYDKETKEVTVRIESAGGSAGGS [r20_155_TrROS_Hall]	4.02 ± 0.097	3.95 ± 0.12	3.9 ± 0.2
SAGGMQALLRLPDTDEVVVLPDELLEAIASGDPERLAALPPEVREVISNVAELVVVPPPDGDPRPEGGSAGG [r13_233_TrMRF]	0.496 ± 0.15	0.614 ± 0.15	0.419 ± 0.032
SAGGGPAAEVARLLREAGYDVEVEVEVFSREENPPLLPGEPLVVRVRVYATPPTGPRRPLGEFVVPVGSAGG [r13_874_TrMRF]	2.49 ± 0.029	2.17 ± 0.06	1.47 ± 0.035
SAGMIEILELPPNKAIVKIYDPKTGKFEIIEIDFGGKDGKPLSLEELIEKIKKLAKELYPDLEINVTPLSAG [r5_293_TrMRF]	1.98 ± 0.063	2.61 ± 0.17	3.28 ± 0.26
SASNKPRTIEVPIMIPPDDLKEHSPEEFIDWIANELGLPPGKDIKIDVDIEPFEHDGRPYYIIPARIQVSAG [r14_334_TrROS]	-0.294 ± 0.32	-0.231 ± 0.22	-0.362 ± 0.2
SMTFVLPYPKEGKTITVTYPDLESAVSSSGVATFQDPALLAQVIAALPSSVIVKEIKKNPDGTYTLTVAASA [r9_997_JUSTAS]	-0.066 ± 0.24	0.483 ± 0.1	0.773 ± 0.043
SAGGSAGGSVLPDVLRTLFPDAKVTVKVTEVSETSATVDVEVEVPVPGGSTRRFRLKLEVPLSSAGGSAGGS [r20_78_TrMRF]	2.34 ± 0.044	2.14 ± 0.066	1.78 ± 0.029
SAGGSAGGSAGGGIYEVDENGNPLPPRPYLVLKIGYEVGYLPDGGAGLSLNIEIYPVYDASAGGSAGGSAGG [r7_572_TrMRF]	4.25 ± 0.13	3.79 ± 0.23	3.18 ± 0.2
SAGGSAGGSKTIVLPKNMSIEQAREEILAKARELLPPGEKLKVTIEVVETPEGTYLKITIEKESAGGSAGGS [r12_1051_TrROS_Hall]	3.51 ± 0.086	3.22 ± 0.058	2.49 ± 0.06
SAGGSAGGPEIKVLEVRKLPDGSFEFIVEVPPGDAEKIKSGTVVKIKFGDKEYDVTVEVIPTEGSAGGSAGG [r6_372_TrMRF]	2.52 ± 0.051	2.24 ± 0.045	1.73 ± 0.038
SAGGSMTMTVEIHYPDGTVETRTVPYAPDDPAAAIAAVKAEVEARGGEVLAVETRDGVVTVKALVPPSAGGS [r16_662_JUSTAS]	3.01 ± 0.086	2.72 ± 0.095	2.4 ± 0.07
SAGGSAGGMKTTTYTFPGTLEEAKALAEELVAALPPHAKEVTVEVTPDPATGTVTVTITVKELASAGGSAGG [r6_164_JUSTAS]	3.63 ± 0.064	3.46 ± 0.13	3.17 ± 0.19
SAGGTLEEFARDLAKELAKENGGKNVPFEIEIPVKMEWYPSPDGDPEPIMTHPMRIRIQFQIPPGQPSAGGS [r16_156_TrROS]	1.53 ± 0.14	1.08 ± 0.15	0.389 ± 0.11
SAGGSAGGSAGMEIEEKGDYLVIRIKVKEGETIELPEGWEVVDVEYDPETEEVTIVIRRKSAGGSAGGSAGG [r11_942_TrROS_Hall]	2.88 ± 0.1	3.9 ± 0.28	4.38 ± 0.18
SAMVSVTELPDGGVLATFPLPDGHPATAVFDPADLKPSVAYFPNGLRAVLRVTPDGRVELLAVEDVPPASAG [r14_877_TrMRF]	0.963 ± 0.1	0.943 ± 0.052	0.892 ± 0.023
SPLELPSDEEITVNAEVLILPYNPETGEIEDEIPIPLPVKIKVKKDGSVEIEIDIPDSIPENVPIVLLLKSA [r9_90_TrMRF]	1.81 ± 0.14	1.52 ± 0.19	1.29 ± 0.062
SAGGSAGGSAGGKPKKILNIELVLKGKDGKKYKLKIEIYNYPDKPKIYITFPDGTTIEASAGGSAGGSAGGS [r10_404_TrMRF]	5.28 ± 0.19	5.15 ± 0.21	3.54 ± 0.13
SAGGSAGGSAGKKPPKVKVLELTFTLEDGYKVTVRLVENEDGELFLEIRIEPLPELPEEKSAGGSAGGSAGG [r11_998_TrROS_Hall]	3.36 ± 0.14	2.94 ± 0.13	1.79 ± 0.16

Sequence	folding stability dG unfold [1] [kcal/mol]	folding stability dG unfold [2] [kcal/mol]	folding stability dG unfold [3] [kcal/mol]
SAGRIHVMVFPLDPKDGKWEWVWTFTIDFKPGEKLTLDEIADDIPPKGYMVMIWFTPDTITITIWRRKDSAG [r5_269_TrROS]	5.33 ± 0.082	4.96 ± 0.12	3.87 ± 0.092
SAGMIKVEVYTLDPNGVLTKETYEIPLLPGTPIEEVVNELTEPGTGAVEIVEYNPPPPEIKIKIVRFPASAG [r5_227_TrMRF]	2.94 ± 0.09	2.49 ± 0.23	1.48 ± 0.43
SAGGMKIEKIFSSEEEAKAAAEKIKNETPEGKELKIEISKIPLKENLPPESPEILDEERYIVKVELPSAGGS [r16_795_JUSTAS]	0.116 ± 0.42	0.467 ± 0.24	0.816 ± 0.078
SAGGMVLVSTPSNRGASSEILKEAAEAISAGDPDKAAELAREYFQKNFPPDEPIKIEIFVDPPVEPESAGGS [r8_48_TrMRF]	0.744 ± 0.063	0.662 ± 0.044	0.476 ± 0.011
SAGGSAGGSAGKVELIETEDKLYLVVEVDGKKEVIEVSKEELEELLAALPPDAKVTILKPSAGGSAGGSAGG [r11_374_TrROS_Hall]	2.49 ± 0.12	2.77 ± 0.16	3.17 ± 0.21
SAGGSAMVTPEERVEAALAYIRGKYGFPLSATPAQLREAGLPVRVELTVTDADGRPLATVTLEIPGSAGGSA [r15_391_TrMRF]	1.78 ± 0.089	1.65 ± 0.07	1.39 ± 0.037
SKMKVIKTFENKETGEKIVIVKDEKTKKYYIFIYNKDGELVEKIEVEPGETITLPNGKTITIKEGDVIEFSA [r9_340_TrROS_Hall]	4.24 ± 0.071	4.35 ± 0.087	4.24 ± 0.13
SAGSITLVFKTPEELEEALKKLAEELGLSEEEVEALKKELEEKFTITYDEETGYVTITLKPELSEEELKSAG [r5_717_TrROS_Hall]	3.71 ± 0.15	3.44 ± 0.24	2 ± 0.13
SAGGSGMSFSITEEVVIPTPGPRTLLLLKTEGDIIIVERDGERLRPVKTVPRKEVPEEPEKLIEELSAGGSA [r2_133_JUSTAS]	-0.243 ± 0.15	-0.434 ± 0.12	-1.07 ± 0.34
SAGGSATLTLEAEFRLEDGTTVRVRVEVSPDGTVRIEVEVLPAPPPPPKVEVKEVFTTADGRKVLLSAGGSA [r2_78_TrROS_Hall]	1.62 ± 0.063	1.57 ± 0.1	1.2 ± 0.035
SAGGSAGGSAGGPDFKIEPVEKKGNYELYKAYIPETGEEFFLVYYPNPKEVKIYPSDYLSAGGSAGGSAGGS [r10_172_TrMRF]	1.52 ± 0.034	1.29 ± 0.049	0.754 ± 0.038
SSMSSSPLGSDPATGTTYYLSVSNNSTTLSTVTPAPVLPISPEELEKIAKELAKKNPKLAKKAKELAEKLKS [r1_330_JUSTAS]	0.123 ± 0.25	-0.0137 ± 0.3	-0.301 ± 0.2
SAGGMIRITEGPNYYKITFWMPPNNPSLLEEIADFFGNPKVDTEPIPEDGMTRHEITLPLDDPEAIKSAGGS [r16_479_TrROS]	1.37 ± 0.23	1.19 ± 0.27	0.765 ± 0.11
SMKIEVEKLEDGTYVITIEDPGEDDIPVTYKAVVFVDPETGKVYVDRNIEDPNVPPELKELFENFIPGIESA [r9_715_TrMRF]	3.097 ± 0.018	2.92 ± 0.056	2.5 ± 0.094
SDEDLEILRVEATPDTIRILFKIPSNPDLYIEVPITVFEDETSRRILINARILRPETGEVIAEIPFEIPLSA [r9_18_TrMRF]	4.24 ± 0.13	3.78 ± 0.24	3.53 ± 0.16
SAGGEGEPFRITPDEIQRIFNELAQDHGFNVSISEIQVPGDEVRITISIQHDGGTQSVRLPFRIEKDDSAGG [r13_652_TrROS]	0.191 ± 0.21	0.37 ± 0.21	0.427 ± 0.2
SAGGMMKYVVRIKIYNENGEEVKEIEIEIEMSEEEVEELARKLAEKLAEELGVEVKIVEVEIEKLEPSAGGS [r16_140_TrROS_Hall]	4.28 ± 0.2	4.39 ± 0.25	4.4 ± 0.37
SMVITLPVEDEEKLKELLDELKEQLEKAEEEGLETVTITITLEDGETLEITIDKNMTVEELLEQLEKALESA [r9_127_TrROS_Hall]	1.57 ± 0.12	2.61 ± 0.29	3.22 ± 0.33
SGSTHTVRPPGGLTLTFTFSTDGTTEEAAQALKEALAAALPPDVTVTFDRIDPDKPVTPDEAATVDATVVSA [r9_178_JUSTAS]	1.69 ± 0.11	1.21 ± 0.17	0.482 ± 0.055
SAGGMKIKLKNGKVIEIKKKPGYIEIKIIDKKTKKVYTYTFKSKDGKISLEDLAKKLAELPNIKEIIPSAGG [r13_579_TrROS_Hall]	4.48 ± 0.15	4.27 ± 0.32	3.3 ± 0.29
SAGGSAGGSAGMTIKEDPKTGTRVVRLPDGSVLYIEEKGDKIKKVYSDPVPPVPPGNPALASAGGSAGGSAG [r3_406_JUSTAS]	0.734 ± 0.048	0.574 ± 0.061	0.217 ± 0.026
